Experiment: soluble on expression in E. coli; label from the status in PepcDB or PDB records
For “MAHHHHHHSLSILVTRPSPAGEELVSRLRTLGQVAWHFPLIEFSPGQQLPQLADQLAALGESDLLFALSQHAVAFAQSQLHQQDRKWPRLPDYFAIGRTTALALHTVSGQKILYPQDREISEVLLQLPELQNIAGKRALILRGNGGRELIGDTLTARGAEVTFCECYQRCAIHYDGAEEAMRWQAREVTMVVVTSGEMLQQLWSLIPQWYREHWLLHCRLLVVSERLAKLARELGWQDIKVADNADNDALLRALQEG”, the “soluble on expression in E. coli” value was “soluble”. In the case of “MAHIVQTHKLTLHDVAIDQALVYSSDSNCAELKRTFQVELAHGYNEVKVQNLPFDLVQDSIRVSGAGEAVIHDVSVKNQEGAEFVIPERVLAIKAIFEEKERAKDKVADSRVAVQKRIEGLDNLITEVAKHGKDGAFHFDGRTIESLNALHGFHQDTTVDLRAQIRTLDQDLRKAEEEYARASQDYDNTGYRWRNSAQYASIIVESEAGGAAQLTITYQVNNVSWTPFYDIRVTAGVEAEMHVTYFGKVRQYSGEDWKTVPLVLSTARPAHGVKQLPKLGALEASIVVPEPECNRGGRGGYGGGYAQDSVVMACAAPMMEMGRSRKSMKMSYAAVKSSNIASEFSIGRPATIDDRTDEYKVNIGQFTLDTKLSNVTVPSRNATAFLVANSVNTSDYPLVAGQASIFLDGAFVNKTEFEDAVVSQKFEVSLGVDPNIRIEYKPVRNYQEQSGTVEKINSQVTEKTTAVTNLRPNSVLLTIREQLPRSTDSRIKVHLNTPEAVEVDEASVEPTVGAAITPEKILDYTVQLAPGQSSTFVVKYTTEHPQAEQIRYEEKF”, the “soluble on expression in E. coli” value is reported as “not soluble”. For “MAHKKSNRQLIDACRQNFLSHLRLREWRDVHSQLLTVVREHGWRLNEAEATYEQIHLALLTGLLGNLGMKADDDPHYLGARGIKFYLWPGSALAKKAGRWVMAAELVETSRLYARCLAKIEPEWIEKVGAHLLKKSLSEPLEHHHHHH”, the “soluble on expression in E. coli” value was “soluble”. In the case of “MAHRTFRLCRLRIRRLRDHPLRQDGMVDYSTTATTNTLYLLHTGHHVPPPPSHRNPPFSFRSFRPPIQPCSPNSHHVDNVIILASAIK”, the “soluble on expression in E. coli” value is reported as “not soluble”. In the case of “MAIAYFIPDQAQLLARSYQQNGQQTAASPRTTATAAAPSQQQQQSQQQQQQQRHHHQQQRPQFRANISVPLGSQQGSMTMSEFGCWDLLAQIFCYALRIYSYSSSQRQPTVIQISFEISSGGQNNDEDDVTDATSKEN”, the “soluble on expression in E. coli” value is reported as “not soluble”. In the case of “MAIEHFSTLKQHLSSQIIGQEALVENLLIALLANGHLIVEGPPGLAKTRAVNALAQGLEADFHRIQFTPDLLPADLTGTDIYRPEDGTFVFQPGPLFQNLVLADEINRAPAKVQSALLEAMAEGQITVGRKTYDLPELFLVMATQNPIEQEGTYPLPEAQLDRFLMHIEIGYPDAESELAILKLNRGEALRSNANHGNDSSEKETSTKENSLRTLSQSEIFSAREQVLNIHMAPSLENYIVDLIIATRQPEKYDDKLSTWLAFGASPRATIALDRCARARAWLHNRDFVSPEDIQAVFHNALRHRILLSYQAEAEGITANQVLDYILTQVAVALEHHHHHH”, the “soluble on expression in E. coli” value is reported as “soluble”. With “MAIELHGAISPQDDGSFDSKTLGTICWGDHNNVYMVIGNQTLEGKISKIDRPLLVIQKSDKNHQENGEKNATVNAVIRKKLVFKTRPRPLVLSTVV” the “soluble on expression in E. coli” value was “soluble”. With “MAIFARETMDLIATASFPSIKKLSSGFWLDLFESTLTSGNELVLLPPTRYSYWSIMAVANPTPLKAPRRLDLVTKSLLAAPLLFHLVCQSNNPVREDVLDCWVWPFFCSGNTALMKSPKFWALLGVGSKVVLPWLCPLLGSRNAGKA” the “soluble on expression in E. coli” value was “soluble”. For “MAIKSPPTLIPLSHLSGEELQAHLRFNRVTDEKGRYLPFDELQYRIKKGENVDVAWTLTRLARNAAIQRINYCNEAGEQAGFNITPVIAEACELVDKRATALALKDQTERLRGAGAELSQLRLEEPITSSQLEGANTTTLVARKMLETGRSPRTEDEHMIAGNARLMAEIPHLLAEPLTPALIRQLHAIGMGGINDAKYRPGEFRETDDVVIADYDGNIVHQPPAAALLPERLEKVCQWLNSHEGYIHPLVRACILHFMLAHEHPFRDGNGRTSRALFYWYMLKSGYDVFKYISISRLLHAAPVKYAASYQYTESDGMDLTYFLEYQAGVIKRALQNWQQHIDEITQRSAKLDSVLFSSGVLKRLNPRQVTLLNVMLANPGKEYTVAEISASLGVSDNTVRADLRTIVKEGFAQEKKINDQQAVYFAHYPL”, the “soluble on expression in E. coli” value was “not soluble”.

Reference: the DeepSol protein solubility set
